Measured values published in US20150344570A1 (published 2015).

T1: FcγRIIa H (FcgRIIa type H, His at position 131), extracellular domain with C-terminal His tag (human, UniProt P12318 34-217)
T1 construct: extracellular domain; also called 2aH; FcgRIIa H; not shown: His tag at the C terminus
T1 sequence (looked up): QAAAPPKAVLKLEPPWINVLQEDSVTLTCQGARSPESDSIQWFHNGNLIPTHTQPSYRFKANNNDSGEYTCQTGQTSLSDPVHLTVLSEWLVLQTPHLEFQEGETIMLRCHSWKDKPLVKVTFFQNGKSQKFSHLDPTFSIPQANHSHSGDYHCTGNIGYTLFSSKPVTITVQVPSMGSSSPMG

T2: FcγRIIb extracellular domain with C-terminal His tag (human, UniProt P31994 43-217)
T2 construct: extracellular domain; also called FcgRIIb; 2b
T2 sequence (looked up): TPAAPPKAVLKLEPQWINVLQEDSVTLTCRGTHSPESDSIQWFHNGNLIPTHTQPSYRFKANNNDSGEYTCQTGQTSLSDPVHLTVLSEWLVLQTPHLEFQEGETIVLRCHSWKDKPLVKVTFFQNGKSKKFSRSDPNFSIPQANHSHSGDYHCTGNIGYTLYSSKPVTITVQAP

T3: FcγRIIb extracellular domain with C-terminal His tag (human, UniProt P31994 43-217)
T3 construct: extracellular domain; Soluble receptor used as analyte in Biacore; also called FcgRIIb; CD32B
T3 sequence (looked up): T2 sequence (looked up)

T4: FcγRIIb, extracellular domain with C-terminal His tag (human, UniProt P31994 43-217)
T4 construct: extracellular domain; also called 2b; FcgRIIb; not shown: His tag at the C terminus
T4 sequence (looked up): T2 sequence (looked up)

B1: GpH7-A5/GpH7-B3 variant V266_20W/GpL16-k0 (antibody, human IgG1, kappa)
heavy 1: not shown
heavy 2: not shown
light: DIVMTQSPLSLPVTPGEPASISCQASESLVHSNRNTYLHWYLQKPGQSPQLLIYKVSNRFSGVPDRFSGSGSGTDFTLKISRVEAEDVGVYYCSQNTHVPPTFGQGTKVEIERTVAAPSVFIFPPSDEQLKSGTASVVCLLNNFYPREAKVQWKVDNALQSGNSQESVTEQDSKDSTYSLSSTLTLSKADYEKHKVYACEVTHQGLSSPVTKSFNRGEC
notes: He Ab; alteration in one H chain only; also called He Ab
B2: GpH7-A5/GpH7-B3 variant Y300_10E/GpL16-k0 (antibody, human IgG1, kappa)
heavy 1: not shown
heavy 2: not shown
light: B1 light
notes: as for B1
B3: GpH7-A5/GpH7-B3 variant Q295_01G/GpL16-k0 (antibody, human IgG1, kappa)
heavy 1: not shown
heavy 2: not shown
light: B1 light
notes: Heterodimerized anti-glypican-3 IgG1; alteration only in the GpH7-B3 chain, EU numbering; also called He Ab
B4: GpH7-A5/GpH7-B3 variant D270_20W/GpL16-k0 (antibody, human IgG1, kappa)
heavy 1: not shown
heavy 2: not shown
light: B1 light
notes: as for B3
B5: GpH7-A5/GpH7-B3 variant E269_01G/GpL16-k0 (antibody, human IgG1, kappa)
heavy 1: not shown
heavy 2: not shown
light: B1 light
notes: Heterodimerized anti-glypican-3 IgG1; mutation in the GpH7-B3 chain only; also called He Ab E269G
B6: GpH7-A5/GpH7-B3 variant E269_14T/GpL16-k0 (antibody, human IgG1, kappa)
heavy 1: not shown
heavy 2: not shown
light: B1 light
notes: Heterodimerized anti-glypican-3 IgG1; mutation in the GpH7-B3 chain only; also called He Ab E269T
B7: GpH7-A5/GpH7-B3 variant H268_07I/GpL16-k0 (antibody, human IgG1, kappa)
heavy 1: not shown
heavy 2: not shown
light: B1 light
notes: Heterodimerized anti-glypican-3 IgG1; mutation in the GpH7-B3 chain only; also called He Ab H268I
B8: GpH7-A5/GpH7-B3 variant H268_06M/GpL16-k0 (antibody, human IgG1, kappa)
heavy 1: not shown
heavy 2: not shown
light: B1 light
notes: Heterodimerized anti-glypican-3 IgG1; mutation in the GpH7-B3 chain only; also called He Ab H268M
B9: GpH7-A5/GpH7-B3 variant S267_04F/GpL16-k0 (antibody, human IgG1, kappa)
heavy 1: not shown
heavy 2: not shown
light: B1 light
notes: Heterodimerized anti-glypican-3 IgG1; mutation in the GpH7-B3 chain only; also called He Ab S267F
B10: GpH7-A5/GpH7-B3 variant E269_04F/GpL16-k0 (antibody, human IgG1, kappa)
heavy 1: not shown
heavy 2: not shown
light: B1 light
notes: Heterodimerized anti-glypican-3 IgG1; mutation in the GpH7-B3 chain only; also called He Ab E269F
B11: GpH7-A5/GpH7-B3 variant S267_15Y/GpL16-k0 (antibody, human IgG1, kappa)
heavy 1: not shown
heavy 2: not shown
light: B1 light
notes: Heterodimerized anti-glypican-3 IgG1; mutation in the GpH7-B3 chain only; also called He Ab S267Y
B12: GpH7-A5/GpH7-B3 variant E269_18N/GpL16-k0 (antibody, human IgG1, kappa)
heavy 1: not shown
heavy 2: not shown
light: B1 light
notes: Heterodimerized anti-glypican-3 IgG1; mutation in the GpH7-B3 chain only; also called He Ab E269N
B13: GpH7-A5/GpH7-B3 variant H268_11K/GpL16-k0 (antibody, human IgG1, kappa)
heavy 1: not shown
heavy 2: not shown
light: B1 light
notes: Heterodimerized anti-glypican-3 IgG1; mutation in the GpH7-B3 chain only; also called He Ab H268K
B14: GpH7-A5/GpH7-B3 variant E269_02A/GpL16-k0 (antibody, human IgG1, kappa)
heavy 1: not shown
heavy 2: not shown
light: B1 light
notes: Heterodimerized anti-glypican-3 IgG1; mutation in the GpH7-B3 chain only; also called He Ab E269A
B15: GpH7-A5/GpH7-B3 variant E269_13S/GpL16-k0 (antibody, human IgG1, kappa)
heavy 1: not shown
heavy 2: not shown
light: B1 light
notes: Heterodimerized anti-glypican-3 IgG1; mutation in the GpH7-B3 chain only; also called He Ab E269S
B16: GpH7-A5/GpH7-B3 variant V266_18N/GpL16-k0 (antibody, human IgG1, kappa)
heavy 1: not shown
heavy 2: not shown
light: B1 light
notes: Heterodimerized anti-glypican-3 IgG1; mutation in the GpH7-B3 chain only; also called He Ab V266N
B17: GpH7-A5/GpH7-B3 variant S267_20W/GpL16-k0 (antibody, human IgG1, kappa)
heavy 1: not shown
heavy 2: not shown
light: B1 light
notes: Heterodimerized anti-glypican-3 IgG1; mutation in the GpH7-B3 chain only; also called He Ab S267W
B18: GpH7-A5/GpH7-B3 variant E269_06M/GpL16-k0 (antibody, human IgG1, kappa)
heavy 1: not shown
heavy 2: not shown
light: B1 light
notes: Heterodimerized anti-glypican-3 IgG1; mutation in the GpH7-B3 chain only; also called He Ab E269M

These binders were tested against T1, FcγRIIa H (FcgRIIa type H, His at …) (assay: SPR; He/Con_2aH divided by He/Con_2b (FcγRIIa H binding over FcγRIIb binding)).

Row | He_2aH/2b (IIaH/IIb) [ratio] | Binder
1 | 0.17 | B1
2 | 0.73 | B2

What follows are binders tested against T5, FcγRIa extracellular domain with C-terminal His tag (human, UniProt P12314 16-292) (assay: SPR (Biacore); He/Con_1a divided by He/Con_2b (FcγRIa binding over FcγRIIb binding)).
T5 construct: extracellular domain; also called FcgRI; 1a
Method: (§1) The heterodimerized antibodies He Abs in which one of the H chains was introduced with an alteration were assayed for their binding activities to each activating FcγR and inhibitory FcγR according to the method described in Example 4. […] The activating FcγRs in FIGS. 26, 27, 28, and 29 are FcγRIa, FcγRIIa (R), FcγRIIa (H), and FcγRIIIa, respectively.
(§2) Analysis of interaction between objective antibody and the FcγR was carried out using Biacore T100 (GE Healthcare). HBS-EP+ (GE Healthcare) was used as the running buffer, and the measurement temperature was set to 25° C. Chips produced by immobilizing the antigen peptide by the amine coupling method to a Series S Sencor Chip CM5 (GE Healthcare), or alternatively, chips produced by allowing preliminarily biotinylated antigen peptides to interact with and immobilize onto a Series S Sensor Chip SA (certified) (GE Healthcare) were used. Antibodies of interest were captured onto an antigen peptide-immobilized chip, and allowed to interact to each FcγR diluted with running buffer. To regenerate and repeatedly use the chip, the antibodies captured on the chip were washed off by reacting 10 mM glycine-HCl, pH 1.5.
T5 sequence (P12314 16-292): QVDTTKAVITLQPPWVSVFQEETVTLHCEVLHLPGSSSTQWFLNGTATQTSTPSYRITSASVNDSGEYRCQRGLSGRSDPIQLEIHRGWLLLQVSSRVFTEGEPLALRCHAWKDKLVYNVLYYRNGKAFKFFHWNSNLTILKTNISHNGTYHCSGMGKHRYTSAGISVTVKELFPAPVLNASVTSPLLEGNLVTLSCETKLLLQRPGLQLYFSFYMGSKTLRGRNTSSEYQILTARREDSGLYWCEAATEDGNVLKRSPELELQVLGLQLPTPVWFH

Row | He_1a/2b (Ia/IIb) [ratio] | Binder
3 | 2.12 | B3
4 | 1.96 | B4

The binders below were run against T2, FcγRIIb extracellular domain with … (assay: SPR (Biacore), antibody captured via antigen peptide, FcγR as analyte; relative binding).
Method: as §1, §2

Row | He/Con_2b | Binder
5 | 46 % of GpH7-A5/GpH7-B3/GpL16-k0 (=100) | B3
6 | 34.7 % of GpH7-A5/GpH7-B3/GpL16-k0 (=100) | B4

These binders were tested against T5, FcγRIa extracellular domain with … in the same assay as above.
Method: as §1, §2

Row | He/Con_1a | Binder
7 | 97.6 % of GpH7-A5/GpH7-B3/GpL16-k0 (=100) | B3
8 | 68 % of GpH7-A5/GpH7-B3/GpL16-k0 (=100) | B4

These binders were tested against T6, FcγRIa extracellular domain with C-terminal His tag (human, UniProt P12314 16-292) (assay: SPR Biacore, antibody captured on antigen-peptide chip, FcγR as analyte).
T6 construct: extracellular domain; Soluble receptor used as analyte in Biacore; also called FcgRI; FcgRIa
T6 sequence (P12314 16-292): as above

Row | He/Con_1a | Binder
9 | 104 relative, GpH7-A5/GpH7-B3/GpL16-k0 = 100 | B5
10 | 106 relative, GpH7-A5/GpH7-B3/GpL16-k0 = 100 | B6
11 | 108 relative, GpH7-A5/GpH7-B3/GpL16-k0 = 100 | B7
12 | 105 relative, GpH7-A5/GpH7-B3/GpL16-k0 = 100 | B8
13 | 97.7 relative, GpH7-A5/GpH7-B3/GpL16-k0 = 100 | B9
14 | 103 relative, GpH7-A5/GpH7-B3/GpL16-k0 = 100 | B10
15 | 94.2 relative, GpH7-A5/GpH7-B3/GpL16-k0 = 100 | B11
16 | 102 relative, GpH7-A5/GpH7-B3/GpL16-k0 = 100 | B12
17 | 106 relative, GpH7-A5/GpH7-B3/GpL16-k0 = 100 | B13
18 | 104 relative, GpH7-A5/GpH7-B3/GpL16-k0 = 100 | B14
19 | 103 relative, GpH7-A5/GpH7-B3/GpL16-k0 = 100 | B15
20 | 99.5 relative, GpH7-A5/GpH7-B3/GpL16-k0 = 100 | B16
21 | 99.4 relative, GpH7-A5/GpH7-B3/GpL16-k0 = 100 | B17
22 | 104 relative, GpH7-A5/GpH7-B3/GpL16-k0 = 100 | B18

What follows are binders tested against T3, FcγRIIb extracellular domain with … in the same assay as above.

Row | He/Con_2b | Binder
23 | 51.5 relative, GpH7-A5/GpH7-B3/GpL16-k0 = 100 | B5
24 | 50.6 relative, GpH7-A5/GpH7-B3/GpL16-k0 = 100 | B6
25 | 88.9 relative, GpH7-A5/GpH7-B3/GpL16-k0 = 100 | B7
26 | 65.7 relative, GpH7-A5/GpH7-B3/GpL16-k0 = 100 | B8
27 | 48 relative, GpH7-A5/GpH7-B3/GpL16-k0 = 100 | B9
28 | 45 relative, GpH7-A5/GpH7-B3/GpL16-k0 = 100 | B10
29 | 37.9 relative, GpH7-A5/GpH7-B3/GpL16-k0 = 100 | B11
30 | 44.8 relative, GpH7-A5/GpH7-B3/GpL16-k0 = 100 | B12
31 | 83 relative, GpH7-A5/GpH7-B3/GpL16-k0 = 100 | B13
32 | 49.9 relative, GpH7-A5/GpH7-B3/GpL16-k0 = 100 | B14
33 | 47.8 relative, GpH7-A5/GpH7-B3/GpL16-k0 = 100 | B15
34 | 69.7 relative, GpH7-A5/GpH7-B3/GpL16-k0 = 100 | B16
35 | 57.2 relative, GpH7-A5/GpH7-B3/GpL16-k0 = 100 | B17
36 | 46.7 relative, GpH7-A5/GpH7-B3/GpL16-k0 = 100 | B18

These binders were tested against T4, FcγRIIb, extracellular domain with … (assay: SPR (Biacore), relative binding, GpH7-A5/GpH7-B3/GpL16-k0 = 100).

Row | He/Con_2b | Binder
37 | 71.9 % of control | B1
38 | 134 % of control | B2

The binders below were run against T1, FcγRIIa H (FcgRIIa type H, His at …) in the same assay as above.

Row | He/Con_2aH | Binder
39 | 12 % of control | B1
40 | 97.2 % of control | B2
